Laboratory results as given in patent US7220822.

Key:
[1] = biological target: CD80-Ig (extracellular domain of CD80 fused with the constant region of mouse IgG1 heavy chain) (mouse); assay: SPR competitive kinetics, peptide 0.25 × 10^5 nM with 3.2 µM CD28-Ig (competitor) over captured CD80-Ig
[2] = biological target: CD80-Ig (extracellular domain of CD80 fused with the constant region of mouse IgG1 heavy chain) (mouse); assay: SPR direct kinetics, peptide 7.50E+02 nM over immobilized CD80-Ig
[3] = biological target: CD80-Ig (extracellular domain of CD80 fused with the constant region of mouse IgG1 heavy chain) (mouse); assay: SPR competitive kinetics, peptide 2 × 10^5 nM with 3.2 µM CD28-Ig (competitor) over captured CD80-Ig
[4] = biological target: CD80-Ig (extracellular domain of CD80 fused with the constant region of mouse IgG1 heavy chain) (mouse); assay: SPR direct kinetics, peptide 1.50E+03 nM over immobilized CD80-Ig
[5] = biological target: CD80-Ig (extracellular domain of CD80 fused with the constant region of mouse IgG1 heavy chain) (mouse); assay: SPR competitive kinetics, average over peptide concentrations; competitor CD28-Ig
[6] = biological target: CD80-Ig (extracellular domain of CD80 fused with the constant region of mouse IgG1 heavy chain) (mouse); assay: SPR direct kinetics, peptide 6.00E+03 nM over immobilized CD80-Ig
[7] = biological target: CD80-Ig (extracellular domain of CD80 fused with the constant region of mouse IgG1 heavy chain) (mouse); assay: SPR competitive kinetics, peptide 0.5 × 10^5 nM with 3.2 µM CD28-Ig (competitor) over captured CD80-Ig
[8] = biological target: CD80-Ig (extracellular domain of CD80 fused with the constant region of mouse IgG1 heavy chain) (mouse); assay: SPR competitive kinetics, peptide 1 × 10^5 nM with 3.2 µM CD28-Ig (competitor) over captured CD80-Ig
[9] = biological target: CD80-Ig (extracellular domain of CD80 fused with the constant region of mouse IgG1 heavy chain) (mouse); assay: SPR (BIACORE), EL CD28 peptide injected over amine-coupled CD80-Ig (1488 RU); slope of ln dR/dt vs t plotted against the peptide concentration, ka is the slope of this plot
[10] = biological target: CD80-Ig (extracellular domain of CD80 fused with the constant region of mouse IgG1 heavy chain) (mouse); assay: SPR competitive kinetics, peptide 0.125 × 10^5 nM with 3.2 µM CD28-Ig (competitor) over captured CD80-Ig
[11] = biological target: CD80-Ig (extracellular domain of CD80 fused with the constant region of mouse IgG1 heavy chain) (mouse); assay: SPR (BIACORE), peptide over amine-coupled CD80-Ig, 37 C
[12] = biological target: CD80-Ig (extracellular domain of CD80 fused with the constant region of mouse IgG1 heavy chain) (mouse); assay: SPR direct kinetics, peptide 3.75E+02 nM over immobilized CD80-Ig
[13] = biological target: CD80-Ig (extracellular domain of CD80 fused with the constant region of mouse IgG1 heavy chain) (mouse); assay: SPR competitive kinetics, peptide 3 × 10^5 nM with 3.2 µM CD28-Ig (competitor) over captured CD80-Ig
[14] = biological target: CD80-Ig (extracellular domain of CD80 fused with the constant region of mouse IgG1 heavy chain) (mouse); assay: SPR direct kinetics, peptide 3.00E+03 nM over immobilized CD80-Ig
[15] = biological target: CD80-Ig (extracellular domain of CD80 fused with the constant region of mouse IgG1 heavy chain) (mouse); assay: SPR (BIACORE), direct binding to immobilized CD80-Ig, linear regression plot

Kd [1]: 3360 nM
koff [1]: 0.0195 s⁻¹
kon [1]: 3360 M⁻¹ s⁻¹
koff [2]: 0.274 s⁻¹
kon [2]: 110000 M⁻¹ s⁻¹
Kd [3]: 1560 nM
koff [3]: 0.0862 s⁻¹
kon [3]: 55100 M⁻¹ s⁻¹
koff [4]: 0.242 s⁻¹
kon [4]: 115000 M⁻¹ s⁻¹
Kd [5]: 2790 nM
koff [6]: 0.273 s⁻¹
kon [6]: 111000 M⁻¹ s⁻¹
Kd [7]: 5000 nM
koff [7]: 0.316 s⁻¹
kon [7]: 63200 M⁻¹ s⁻¹
Kd [8]: 2540 nM
koff [8]: 0.0803 s⁻¹
kon [8]: 31600 M⁻¹ s⁻¹
kon [9]: 113000 M⁻¹ s⁻¹
Kd [10]: 1380 nM
koff [10]: 0.101 s⁻¹
kon [10]: 73400 M⁻¹ s⁻¹
maximum response units [11]: 668 RU
koff [12]: 0.399 s⁻¹
kon [12]: 246000 M⁻¹ s⁻¹
Kd [13]: 2920 nM
koff [13]: 6.89 s⁻¹
kon [13]: 2.36e+06 M⁻¹ s⁻¹
koff [14]: 0.214 s⁻¹
kon [14]: 137000 M⁻¹ s⁻¹
Kd [15]: 2340 nM
Binder: Ac-KIEFMYPPPYLDNERSNGTI-NH2 [EL-CD28 (end-blocked L CD28 peptide mimetic)]
